Data on four molecules can be found in US20230220084A1 (DRAGONFLY THERAPEUTICS, published 2023).

In test [1] the target is T1, hCLEC12A-His fusion protein (human, UniProt Q5QGZ9 65-265, limits assumed).
T1 construct: Recombinant His-tagged human CLEC12A; also called Human CLEC12A-His; recombinant human CLEC12A
T1 sequence (looked up): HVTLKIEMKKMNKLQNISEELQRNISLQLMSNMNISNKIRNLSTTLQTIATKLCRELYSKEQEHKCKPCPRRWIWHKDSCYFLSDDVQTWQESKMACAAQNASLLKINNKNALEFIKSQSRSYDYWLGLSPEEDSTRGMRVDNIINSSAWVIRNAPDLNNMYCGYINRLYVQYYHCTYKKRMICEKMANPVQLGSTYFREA
In words: SPR, purified murine mAb, Human CLEC12A-His.

Test [2] deals with T1, hCLEC12A-His fusion protein. As to the kind of experiment: yeast display flow cytometry with hCLEC12A-his (PE-A against FITC-A). For orientation: In flow cytometry, cells or beads pass a laser one at a time.
Test [3] has the same target. As to the kind of experiment: SPR 37 C, two-state fit, ka1; ka1 of two-state fit, 37 C.
Test [4] has the same target. In words: SPR 37 C, two-state fit; overall KD of two-state fit, 37 C.
The target is the same in test [5]. In words: SPR 37 C, two-state fit, kd1; kd1 of two-state fit, 37 C.
The target is the same in test [6]. As to the kind of experiment: SPR 37 C, two-state fit, kd2.
The target is the same in test [7]. In words: SPR, purified murine mAb. On the technique in general: Surface plasmon resonance follows binding to a sensor surface in real time, without labels.
The target in test [8] is T2, cCLEC12A-His (cynomolgus monkey, UniProt A0A2K5WXQ4 71-271).
T2 construct: Recombinant His-tagged cynomolgus CLEC12A; also called Cyno CLEC12A-His; recombinant cyno CLEC12A
T2 sequence: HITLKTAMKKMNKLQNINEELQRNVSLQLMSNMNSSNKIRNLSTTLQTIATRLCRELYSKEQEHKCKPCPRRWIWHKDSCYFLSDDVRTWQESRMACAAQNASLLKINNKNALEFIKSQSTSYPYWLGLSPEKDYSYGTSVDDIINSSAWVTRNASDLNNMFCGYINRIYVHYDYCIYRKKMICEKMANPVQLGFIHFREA
As to the kind of experiment: SPR, purified murine mAb.

For orientation: kon means a measure of how fast the partners come together. A higher kon goes with fast association. Broadly, the Kd is the equilibrium constant for the complex coming apart. The low end stands for tighter binding, the high end for weaker binding. By koff is commonly meant the first-order rate constant of dissociation.

B1: 13E1.A4 (antibody, V domains shown)
VH: EVQLQESGPELEKPGASVRISCKASGYSFTAYNMNWVKQSNGKSLEWIGNIDPSYGDATYNQKFKGKATLTVDKSSSTAYMQLKSLTSEDSAVYYCARDNYYGSGYFDYWGQGTTLTVSS
VL: SVLMTQTPLSLPVSLGDRASISCRSSQGIVHINGNTYLEWYLQKPGQSPKLLIYKVSNRFSGVPDRFSGSGSGTDFTLKISRVEAEDLGVYYCFQGSHVPWTFGGGTKLEIK
notes: Murine mAb purified from the hybridoma subclone
B1: in test [1], the binding result is reported as “binds”.

B2: parent scFv (YDYDDSLDY) (SEQ ID NO:5) of F3′-1602, yeast display (scFv)
scFv: QLQLQESGPGLVKPSETLSLTCTVSGFSLTNYGLHWIRQPPGKCLEWIGVIWSGGKTDYNPSLKSRVTISKDTSKNQFSLKLSSVQAADTAVYYCAKYDYDDSLDYWGQGTLVTVSSGGGGSGGGGSGGGGSGGGGSDIQMTQSPSSLSASVGDRVTITCHASQNINFWLSWYQQKPGKAPKLLIYEASNLHTGVPSRFSGSGSGTRFTLTISSLQPEDIATYYCQQSHSYPLTFGCGTKLEIK
Take B2: the binding result in test [2] was “binds”.

B3: AB0053 (bispecific antibody)
chain: QLQLQESGPGLVKPSETLSLTCTVSGFSLTNYGLHWIRQPPGKCLEWIGVIWSGGKTDYNPSLKSRVTISKDTSKNQFSLKLSSVQAADTAVYYCAKYDYDDALDYWGQGTLVTVSSGGGGSGGGGSGGGGSGGGGSDIQMTQSPSSLSASVGDRVTITCHASQNINFWLSWYQQKPGKAPKLLIYEASNLHTGVPSRFSGSGSGTRFTLTISSLQPEDIATYYCQQSHSYPLTFGCGTKLEIK
For B3, the kon in test [3] was 1.63e+06 M⁻¹ s⁻¹. Also, binding in test [4] was put at a Kd of 2.41 nM. The dissociation rate constant (koff) was 0.0157 s⁻¹ in test [5] and 0.000949 s⁻¹ in test [6].

B4: 15A10.G8 (antibody, V domains shown)
VH: EVQLQESGAELVRSGASIKLSCAASAFNIKDYFIHWVRQRPDQGLEWIGWIDPENDDTEYAPKFQDKATMTADTSSNTAYLQLSSLTSADTAVYYCNALWSRGGYFDYWGQGTTLTVSS
VL: EVLLTQSPAIIAASPGEKVTITCSARSSVSYMSWYQQKPGSSPKIWIYGISKLASGVPARFSGSGSGTYFSFTINNLEAEDVATYYCQQRSYYPFTFGSGTKLEIK
notes: as for B1
Take B4: in test [7], the Kd amounted to 1.6 nM, the off-rate constant (koff) stood at 0.000494 s⁻¹ and the kon was determined as 301000 M⁻¹ s⁻¹. In addition, in test [8], binding was put at a Kd of 3.3 nM, the dissociation rate constant (koff) turned out to be 0.000659 s⁻¹ and the kon came to 196000 M⁻¹ s⁻¹.
